Holding throughout (experiment): purified protein, by the assay type
Substrate in data set [1]: CC(=O)NCCCCCCCCN
Details: steady-state kinetics of acetylpolyamine deacetylation, discontinuous LC-MS after dansyl chloride derivatization. As to the method: (§1) To study steady-state kinetics with non-fluorogenic peptide substrates and acetylpolyamines, a discontinuous LC–MS was employed based on the protocol of assaying nonfluorogenic acetyllysine peptide substrates for HDAC6 (ref. [17]). Assays were performed in triplicate. Briefly, 5 μl of enzyme (0.050–20 μM) in HEPES buffer (20 mM HEPES (pH 7.5), 100 mM NaCl, 5 mM KCl, 1 mM MgCl2) was added to 35 μl of substrate solution to initiate the reaction. After incubation for 15–60 min at room temperature, the reaction was quenched by addition of 50 μl of 20 mM dansyl chloride dissolved in acetonitrile followed by 10 μl of NaHCO3 (1.6 M, pH 10.0). The deacetylation products were derivatized with dansyl chloride at 50 °C for 2 hrs. The deacetylation products were detected by LC–MS using a Waters SQD equipped with an Acquity UPLC (Waters, Milford, MA, USA) and quantified by using the standard curves generated from the mass signals of the corresponding deacetylated polyamines and peptides. Inhibition of HDAC10 activity was measured by using 0.49 μM zHDAC10 with 192 μM N^8-acetylspermidine. Data were analysed by logistic regression for IC50 determination and the inhibition constant Ki was calculated based on the Cheng-Prusoff equation, Ki=IC50 / (1+[S]/KM)[45]. Assays were performed in triplicate at room temperature. We next tested the PDAC activity of hHDAC10 and zHDAC10 against several polyamine substrates using the LC–MS assay (Fig. 2, Supplementary Fig. 3 and Supplementary Table 1). […] For hHDAC10 and zHDAC10, kcat/KM=2,900±200 and 4,600±300 M^−1 s^−1, respectively; in comparison, N^1-acetylspermidine was a poor substrate with kcat/KM=24±5 and 7±2 M^−1 s^−1, respectively. Substrate specificity trends observed for zHDAC10 and hHDAC10 matched those of the previously reported mammalian N^8-acetylspermidine deacetylase activity. […] As a negative control, we examined the N^8-acetylspermidine deacetylase activity of human and zebrafish HDAC6 (ref. [17]). HDAC6 preferentially catalyses the deacetylation of the peptide substrate RGK(ac)-AMC with a catalytic efficiency >100-fold greater than that for the deacetylation of N^8-acetylspermidine. Therefore, HDAC6 is clearly an acetyllysine deacetylase and HDAC10 is an N^8-acetylspermidine deacetylase. It is notable that the molecular function of HDAC10 coincides with the cellular function of the cytosolic PDAC indicated in Fig. 1a.

Substrate in data set [2]: CC(=O)NCCCCCN
Details: steady-state kinetics of acetylpolyamine deacetylation, discontinuous LC-MS after dansyl chloride derivatization. As to the method:
as §1

Substrate in data set [3]: CC(=O)NCCCCN
Further details: steady-state kinetics of acetylpolyamine deacetylation, discontinuous LC-MS after dansyl chloride derivatization. As to the method:
as §1

Substrate in data set [4]: CC(=O)NCCCCNCCCN
Details: steady-state kinetics of acetylpolyamine deacetylation, discontinuous LC-MS after dansyl chloride derivatization. As to the method:
as §1

Substrate in data set [5]: CC(=O)NCCCCNCCCNC(C)=O
Details: steady-state kinetics of acetylpolyamine deacetylation, discontinuous LC-MS after dansyl chloride derivatization. As to the method:
as §1

Substrate in data set [6]: CC(=O)NCCCNCCCCNCCCN
Further details: steady-state kinetics of acetylpolyamine deacetylation, discontinuous LC-MS after dansyl chloride derivatization. As to the method: as §1

Substrate in data set [7]: CC(=O)NCCCC[C@H](NC(=O)[C@H](C)NC(C)=O)C(=O)N[C@@H](C)C(N)=O
Further details: discontinuous LC-MS deacetylation assay, dansylated product quantified, steady-state kinetics. Particulars: 50.0 °C. As to the method:
(§2) To study steady-state kinetics with non-fluorogenic peptide substrates and acetylpolyamines, a discontinuous LC–MS was employed based on the protocol of assaying nonfluorogenic acetyllysine peptide substrates for HDAC6 (ref. [17]). Assays were performed in triplicate. Briefly, 5 μl of enzyme (0.050–20 μM) in HEPES buffer (20 mM HEPES (pH 7.5), 100 mM NaCl, 5 mM KCl, 1 mM MgCl2) was added to 35 μl of substrate solution to initiate the reaction. […] The deacetylation products were derivatized with dansyl chloride at 50 °C for 2 hrs. The deacetylation products were detected by LC–MS using a Waters SQD equipped with an Acquity UPLC (Waters, Milford, MA, USA) and quantified by using the standard curves generated from the mass signals of the corresponding deacetylated polyamines and peptides. Inhibition of HDAC10 activity was measured by using 0.49 μM zHDAC10 with 192 μM N^8-acetylspermidine. Data were analysed by logistic regression for IC50 determination and the inhibition constant Ki was calculated based on the Cheng-Prusoff equation, Ki=IC50 / (1+[S]/KM)[45]. Assays were performed in triplicate at room temperature.

Substrate in data set [8]: CC(=O)NCCCC[C@H](NC(C)=O)C(N)=O
Details: discontinuous LC-MS deacetylation assay, dansylated product quantified, steady-state kinetics. Particulars: 50.0 °C. How it is done:
as §2

Substrate in data set [9]: CC(=O)NCCCC[C@H](NC(=O)[C@H](C)NC(=O)CNC(C)=O)C(=O)Nc1ccc2c(C)cc(=O)oc2c1
Details: fluorogenic AMC-conjugated acetyllysine peptide deacetylation, steady-state kinetics. The source says:
To determine steady-state kinetic parameters for the hydrolysis of a variety of acetylpolyamine and acetyllysine substrates, we prepared full-length recombinant HDAC10 from human (H. sapiens, hHDAC10) and zebrafish (D. rerio, zHDAC10). The CDs of these orthologues are highly similar based on 63%/79% sequence identity/similarity; only full-length constructs yielded soluble proteins. We first assayed the lysine deacetylase activity of these constructs against two commercially available aminomethylcoumarin (AMC)-conjugated fluorogenic acetyllysine peptides, GAK(ac)-AMC and RGK(ac)-AMC (molecular structures of all substrates are shown in Supplementary Fig. 2). […] These measurements were consistent with earlier studies reporting that HDAC10 activity was not measurable using fluorogenic peptide substrates. We also tested activity with 11 non-fluorogenic acetyllysine substrates using a […] chromatography–mass spectrometry (LC–MS)-based discontinuous assay[17] to avoid potential steric clashes that might occur with the bulky AMC group. These substrates included K(ac)NL and GAK(ac)NLQ, which mimic the peptide segment containing K73 in the proposed HDAC10 substrate MutS homologue 2 (MSH2)[22]. Again, we observed no or very low catalytic activity (Fig. 2 and Supplementary Table 1). In comparison with its closest relative, the cytosolic isozyme HDAC6 (ref. [17]), HDAC10 was clearly not an efficient lysine deacetylase.

Substrate in data set [10]: CC(=O)NCCCC[C@H](NC(=O)[C@H](C)NC(=O)CNC(C)=O)C(=O)N[C@@H](CC(N)=O)C(=O)N[C@@H](CC(C)C)C(=O)N[C@@H](CCC(N)=O)C(N)=O
Further details: discontinuous LC-MS deacetylation assay, dansylated product quantified, steady-state kinetics. Particulars: 50.0 °C. As to the method:
as §2

One may read the kcat as the maximal rate divided by the concentration of active sites. A word on the kcat/Km: it is the turnover number divided by the Michaelis constant. Usually Km stands for the substrate concentration at which the rate is half of its maximum.

B1: hHDAC10 (Homo sapiens) (protein)
chain: GTALVYHEDMTATRLLWDDPECEIERPERLTAALDRLRQRGLEQRCLRLSAREASEEELGLVHSPEYVSLVRETQVLGKEELQALSGQFDAIYFHPSTFHCARLAAGAGLQLVDAVLTGAVQNGLALVRPPGHHGQRAAANGFCVFNNVAIAAAHAKQKHGLHRILVVDWDVHHGQGIQYLFEDDPSVLYFSWHRYEHGRFWPFLRESDADAVGRGQGLGFTVNLPWNQVGMGNADYVAAFLHLLLPLAFEFDPELVLVSAGFDSAIGDPEGQMQATPECFAHLTQLLQVLAGGRVCAVLEGGYHLESLAESVCMTVQTLLGDPAPPLSGPMAPCQSALESIQSARAAQAPHWKSLQQQDVTAVPMSPSSHSPEGRPPPLLPGGPVCKAAASAPSSLLDQPCLCPAPSVRTAVALTTPDITLVLPPDVIQQEASALREETEAWARPHESLAREEALTALGKLLYLLDGMLDGQVNSGIAATPASAAAATLDVAVRRGLSHGAQRLLCVALGQLDRPPDLAHDGRSLWLNIRGKEAAALSMFHVSTPLPVMTGGFLSCILGLVLPLAYGFQPDLVLVALGPGHGLQGPHAALLAAMLRGLAGGRVLALLEENSTPQLAGILARVLNGEAPPSLGPSSVASPEDVQALMYLRGQLEPQWKMLQCHPHLVA
notes: full-length, residues 2–669, MBP fusion
B1: the kcat in data set [1] (50.0 °C) is 0.1 ± 0.02 s⁻¹; in data set [2] (50.0 °C) it was 0.14 ± 0.02 s⁻¹; in data set [3] (50.0 °C), 0.35 ± 0.04 s⁻¹; in data set [4] (50.0 °C) it was 0.28 ± 0.02 s⁻¹; in [5] (50.0 °C) it was 0.14 ± 0.08 s⁻¹; in [6] (50.0 °C) it was 0.011 ± 0.002 s⁻¹. For the same protein, the kcat amounted to 0.0006 ± 0.0001 s⁻¹ in data set [7], 0.0092 ± 0.0008 s⁻¹ in data set [8] and 0.00038 ± 2e-05 s⁻¹ in [9]. The kcat/Km in data set [1] (50.0 °C) is 620 ± 50 M⁻¹ s⁻¹; in [2] (50.0 °C), 1300 ± 200 M⁻¹ s⁻¹; in data set [3] (50.0 °C), 2100 ± 300 M⁻¹ s⁻¹; in [4] (50.0 °C), 2900 ± 200 M⁻¹ s⁻¹; in [5] (50.0 °C), 900 ± 300 M⁻¹ s⁻¹; in data set [6] (50.0 °C) it was 60 ± 10 M⁻¹ s⁻¹. Further, the kcat/Km in data set [7] was 11 ± 3 M⁻¹ s⁻¹; in [8], 66 ± 5 M⁻¹ s⁻¹; in data set [9], 38 ± 2 M⁻¹ s⁻¹. For the same protein, the Km in data set [1] (room temperature) amounted to 160 ± 40 µM; in data set [2] (room temperature) it was 110 ± 20 µM; in [3] (room temperature) it was 170 ± 50 µM; in data set [4] (room temperature) it was 100 ± 10 µM; in data set [5] (room temperature) it was 150 ± 90 µM; in data set [6] (room temperature), 180 ± 20 µM. Also, the Km in data set [7] worked out at 60 ± 20 µM; in data set [8], 140 ± 40 µM; in [9], 10 ± 1 µM.

B2: zHDAC6 CD2 (Danio rerio) (protein)
chain: MDAVPDTKGSSGPPRGTPETKNNKKNLQEARRKGRMDRSKAEEEMSNELQNLDVQGKSKATGTGLVYVDAFTRFHCLWDASHPECPARVSTVMEMLETEGLLGRCVQVEARAVTEDELLLVHTKEYVELMKSTQNMTEEELKTLAEKYDSVYLHPGFFSSACLSVGSVLQLVDKVMTSQLRNGFSINRPPGHHAQADKMNGFCMFNNLAIAARYAQKRHRVQRVLIVDWDVHHGQGIQYIFEEDPSVLYFSVHRYEDGSFWPHLKESDSSSVGSGAGQGYNINLPWNKVGMESGDYITAFQQLLLPVAYEFQPQLVLVAAGFDAVIGDPKGGMQVSPECFSILTHMLKGVAQGRLVLALEGGYNLQSTAEGVCASMRSLLGDPCPHLPSSGAPCESALKSISKTISDLYPFWKSLQTFEGGPLSEVSPLPAPVCAEVKVSSPITGLVYDQRMMLHHNMWDSHHPELPQRISRIFSRHEELRLLSRCHRIPARLATEEELALCHSSKHISIIKSSEHMKPRDLNRLGDEYNSIFISNESYTCALLAAGSCFNSAQAILTGQVRNAVAIVRPPGHHAEKDTACGFCFFNTAALTARYAQSITRESLRVLIVDWDVHHGNGTQHIFEEDDSVLYISLHRYEDGAFFPNSEDANYDKVGLGKGRGYNVNIPWNGGKMGDPEYMAAFHHLVMPIAREFAPELVLVSAGFDAARGDPLGGFQVTPEGYAHLTHQLMSLAAGRVLIILEGGYNLTSISESMSMCTSMLLGDSPPSLDHLTPLKTSATVSINNVLRAHAPFWSSLRVNIPESLRLSLPSPKPKGKCTPGGKGKKSPRQSTPSQSPGQATHRPDQSGFDELTADLLSLNLNTSTSSNTSPESVAVGGARRKVKPNTHRVSAGLESESPLKLNPEKAGAGDDTDVKAETPNRSISEPVVTCDSSAVKDQESLVLEAAGGNTVQSVLERVFGAQATDVDTMYVVDPLPWCPHLESVRPVPAGGIDVFQPCEECGGEAENWICLFCYKVLCGRYVNQHMVTHGQESGHPVVLSFADLSVWCYACESYVHNKVLHEAKNAAHLVKFGEGIHPFN
notes: catalytic domain 2
As for B2, in data set [10], the Km was 150 ± 20 µM, the kcat is 1.26 ± 0.07 s⁻¹ and the catalytic efficiency (kcat/Km) was 8300 M⁻¹ s⁻¹.

For the origin of these results see article PMC5454378, “Histone deacetylase 10 structure and molecular function as a polyamine deacetylase” (Nature Communications, 2017).
